Reference: US20150359847A1, “METHOD AND COMPOSITION FOR CONFERRING NEUROPROTECTION” (BLOOD SYSTEMS RESEARCH INSTITUTE, priority 2014, published 2015)

What was measured:
[1] = system: mouse model of controlled cortical impact (CCI); experiment: Morris Water Maze in CCI TBI mice; assay type: in vivo
Excerpt: The mouse controlled cortical impact (CCI) injury model was used as previously described. In brief, mice were anesthetized with 5% isoflurane and 1:1 O2:N2 mixture. Animals were mounted on a stereotaxic frame and were secured by ear bars and an incisor bar. Anesthesia was maintained with 2.0% isoflurane and 1:1 O2:N2 mixture. A 5-mm-diameter craniotomy was made midway between bregma and lambda on the right side, with the medial edge of the craniotomy 1 mm lateral to midline. Injury was produced using a magnetic impactor mounted at an angle of 110° from the vertical plane. A single impact at a velocity of 4+/−0.2 m/s was used inflict a moderate to severe injury (1.2-1.3 mm impact depth). After injury, the incision was closed. Sham animals underwent identical surgeries except for impact injury. Core body temperature was monitored using a rectal thermometer and maintained at 36.8° C.-37.2° C. with a heating pad throughout the procedure. For treatments, TIMP3 (60.0 μg/kg) or vehicle control (PBS) administration was performed at 2, 24, and 48 hrs after injury via tail vein injections in a total volume of 125 μl. Animal research was performed with approval of the Institutional Animal Care and Use Committee at ISIS Services LLC (San Carlos, Calif., USA). Mice received humane care according to the criteria outlined by the National Research Council's Institute of Laboratory Animal Resources in the “Guide for the Care and Use of Laboratory Animals”. Neurocognitive testing conducted at UT Houston was in compliance with University of Texas Houston Institutional Animal Care and Use Committee.
A modified Morris water maze task was used to assess long-term memory. Mice were trained to find the location of a hidden platform in one day. This was followed by probe at 30 mins following the last trial and another probe 24 hrs later. Mice were given 10 training trials with an inter-trial interval of 15 mins. Each trial was initiated by placing the animal into the water maze at one of four randomly chosen starting positions. The animal was allowed to search for the hidden platform for a period of 1 min, and the time to find the platform recorded. […] At thirty minutes and twenty-four hours following the final training trial, animals were tested in a probe trial in which the platform was removed from the tank and allowed to search for a period of 1 min. Movement within the maze was monitored using a video camera linked to […] software (Ethovision™, Noldus Information Technology, Leesbury, Va.). Measures of memory, including latency to first platform crossing, and number of crossings were recorded.

[2] = system: SH-SY5Y cells; experiment: Colorimetric neurite outgrowth assay; assay type: cell-based, human; settings: 1 μg/ml TIMP3, 48 hrs
Method: Neurite Outgrowth Assay Kit™ 3 μm (Cat# NS220) and AXIS™ Axon Isolation Devices, 150 μm, Plasma Bonded chamber slides (Cat# AX15005PB) were purchased from (EMD Millipore, Billerica, Mass.). For neurite outgrowth assays SH-SY5Y cells were initially differentiated for 24 hrs at a density of 4×10^5 cells per well of a 6-well plate. Cells were then dissociated using kit supplied dissociation buffer and 3×10^5 cells were replated onto transwell inserts. […] Assay was conducted per manufacturer's instructions.

[3] = system: β3-tubulin / dendritic branches in the molecular layer of the dentate gyrus; experiment: β3-tubulin western blot and staining of ipsilateral hippocampus 7 days post-TBI; assay type: in vivo, mouse; settings: TIMP3 60 μg/kg IV x3; day 7 post-TBI
Excerpt: (§1) The mouse controlled cortical impact (CCI) injury model was used as previously described. In brief, mice were anesthetized with 5% isoflurane and 1:1 O2:N2 mixture. Animals were mounted on a stereotaxic frame and were secured by ear bars and an incisor bar. Anesthesia was maintained with 2.0% isoflurane and 1:1 O2:N2 mixture. A 5-mm-diameter craniotomy was made midway between bregma and lambda on the right side, with the medial edge of the craniotomy 1 mm lateral to midline. Injury was produced using a magnetic impactor mounted at an angle of 110° from the vertical plane. A single impact at a velocity of 4+/−0.2 m/s was used inflict a moderate to severe injury (1.2-1.3 mm impact depth). After injury, the incision was closed. Sham animals underwent identical surgeries except for impact injury. Core body temperature was monitored using a rectal thermometer and maintained at 36.8° C.-37.2° C. with a heating pad throughout the procedure. For treatments, TIMP3 (60.0 μg/kg) or vehicle control (PBS) administration was performed at 2, 24, and 48 hrs after injury via tail vein injections in a total volume of 125 μl. Animal research was performed with approval of the Institutional Animal Care and Use Committee at ISIS Services LLC (San Carlos, Calif., USA). […]

[4] = system: hippocampal neurons; experiment: Neurite chamber assay (AXIS axon isolation device); assay type: cell-based, mouse; settings: 7 days treatment with TIMP3
Method: For AXIS™ Axon Isolation devices, chambers were first sterilized from one side of the groves to the other under flow gradient with 70% ethanol to avoid trapping air in the groves. Afterwards the slides were completely immersed in 70% ethanol for 5 mins. Upon removing the slide from the ethanol bath, chambers were washed twice with PBS under a flow gradient to flush the chambers, the procedure was then repeated with Poly-D-Lysine. Chambers were then incubated with Poly-D-Lysine overnight at 4° C. Prior to plating cells, chambers were flushed with ‘plating media’ (see tissue culture section). Simultaneous plating of the single cell suspension in both wells on side of the groves enabled equilibrium to be obtained and a sufficient number of cell remained in the chamber adjacent to the groves. Hippocampi from 2 pups were used per chamber. Cells were allowed to attach for 4 hrs before excess cells in the wells were detached using the rubber tip from a sterile 1 ml syringe, plating media removed and ‘maintenance media’ with treatments were added. Flow gradients were maintained throughout the culture steps and media exchanges were performed with this in mind.

[5] = biological target: T1, MMP-2 (Homo sapiens, UniProt P08253); experiment: SensoLyte Fluorimetric MMP-2 Activity Assay; assay type: biochemical; settings: dose response; 1 μg/ml TIMP3
T1 sequence (P08253 110-660): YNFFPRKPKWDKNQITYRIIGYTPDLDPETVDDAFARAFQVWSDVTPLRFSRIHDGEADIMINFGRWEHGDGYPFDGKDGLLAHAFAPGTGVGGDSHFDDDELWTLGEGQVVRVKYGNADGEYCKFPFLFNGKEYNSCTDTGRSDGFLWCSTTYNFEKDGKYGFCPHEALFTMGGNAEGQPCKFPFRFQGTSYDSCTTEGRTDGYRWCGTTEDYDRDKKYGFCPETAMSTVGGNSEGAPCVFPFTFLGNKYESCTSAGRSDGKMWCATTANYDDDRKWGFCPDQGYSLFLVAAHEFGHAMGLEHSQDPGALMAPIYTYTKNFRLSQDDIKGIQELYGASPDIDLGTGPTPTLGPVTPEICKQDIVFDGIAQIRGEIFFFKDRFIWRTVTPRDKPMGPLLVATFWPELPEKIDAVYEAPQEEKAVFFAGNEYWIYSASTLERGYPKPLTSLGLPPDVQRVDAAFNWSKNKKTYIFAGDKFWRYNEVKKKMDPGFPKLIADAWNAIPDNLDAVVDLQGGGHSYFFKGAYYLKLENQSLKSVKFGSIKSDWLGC
Excerpt: SensoLyte Fluorimetric MMP-2 Activity Assay Kit™ (Cat#71151) and SensoLyte Fluorimetric MMP-9 Activity Assay Kit™ (Cat#71155) were purchased from AnaSpec (Fremont, Calif.) and performed per manufacturer's instructions.

[6] = system: DCX+ve neurons in the subgranule zone of the dentate gyrus; settings: 7 days post-TBI
Excerpt: as §1

[7] = long-term probe, TBI+TIMP3 vs TBI alone

B1: TIMP3: Recombinant tissue inhibitor of matrix metalloproteinase-3, a soluble protein released by MSCs, obtained from Amgen Inc. (protein)
chain: CTCSPSHPQDAFCNSDIVIRAKVVGKKLVKEGPFGTLVYTIKQMKMYRGFTKMPHVQYIHTEASESLCGLKLEVNKYQYLLTGRVYDGKMYTGLCNFVERWDQLTLSQRKGLNYRYHLGCNCKIKSCYYLPCFVTSKNECLWTDMLSNFGYPGYQSKHYACIRQKGGYCSWYRGWAPPDKSIINATDP
[1]; TBI+TIMP3 vs TBI alone
  ability to learn the platform location during training: did not significantly differ
[1]; TIMP3 60 μg/kg IV x3, long-term memory probe 24 hrs after training, days 8-9
  total number of correct platform crossings (Morris Water Maze): 1.9±0.4
[1]; [7]
  latency to first platform crossing: did not significantly differ
  time in the area around the platform (concentric rings): spent more time in the area around the platform
[2]
  neurite outgrowth (colorimetric): promotes increased neurite outgrowth
[3]
  number of β3-tubulin+ve dendritic branches >50 μm in the molecular layer: attenuated by TIMP3 treatment
  β3-tubulin protein in ipsilateral hippocampus, western blot: attenuated by TIMP3 treatment
[4]
  neurite outgrowth in neurite chamber: increased neurite outgrowth
[5]
  MMP-2 inhibition (Sensolyte FRET assay): can fully inhibit
[6]
  DCX staining, contralateral side: no significant differences on the contralateral side
[6]; IV TIMP3 vs TBI
  DCX+ve neurons, ipsilateral: significantly attenuated
